{"source": "patent US6127178A", "about": "“Apoptotic peptides” (The Regents of the University of California, priority 1998, dated 2000)", "molecules": {"B1": {"name": "Id2: full-length Id2 helix-loop-helix protein expressed from transfected cDNA (pMAMNeo dex-inducible or tet-regulated vector) (protein, UniProt Q02363 1-134, looked up)", "chain": "MKAFSPVRSVRKNSLSDHSLGISRSKTPVDDPMSLLYNMNDCYSKLKELVPSIPQNKKVSKMEILQHVIDYILDLQIALDSHPTIVSLHHQRPGQNQASRTPLTTLNTDISILSLQASEFPSELMSNDSKALCG", "modifications": "full-length"}, "B2": {"name": "Id3: Id family helix-loop-helix protein expressed in 32D.3 cells from pMAMNeo (protein, UniProt P41133 1-119, looked up)", "DNA-binding protein inhibitor …": "MKALSPVRGCYEAVCCLSERSLAIARGRGKSPSTEEPLSLLDDMNHCYSRLRELVPGVPRGTQLSQVEILQRVIDYILDLQVVLAEPAPGPPDGPHLPIQTAELTPELVISKDKRSFCH"}}, "key": {"32D.3 myeloid cells [1]": {"system": "32D.3 myeloid cells", "experiment": "Viability by trypan blue dye exclusion in 32D.3 transfectants", "format": "cell-based, mouse", "settings": "for rates of cell death: following withdrawal of IL-3, relative to control cells", "from_the_text": "cDNA constructs and establishment of cell lines. The mouse 32D.3 myeloid cell line was maintained in RPMI 1640 medium (GIBCO) supplemented with 10% fetal calf serum and 20U of IL-3 per ml as previously described (3, 12). The human IdI, Id2 and Id3 cDNAs (5, 6, 11) were introduced into the pMAM-Neo expression plasmid (Clontech, Palo Alto, Calif.) at the Xhol site. Mutations in Id2 and Id3 were generated by the polymerase chain reaction. To prepare an N-terminus deletion mutant, a 0.3 kb SalI-XhoI fragment lacking the region encoding amino acids 1-34 was inserted into the pMAM vector. A C-terminally truncated Id2 was prepared by removing a SmaI fragment containing cDNA corresponding to amino acids 93-135. Id2ΔHLH was prepared as previously described (34) and subcloned into the pMAM vector at the XhoI site. The primary structure of all mutants was confirmed by DNA sequencing. 32D.3 cells were electroporated as previously described with 10 μg of linearized plasmid DNA (12). Transfected cells were selected in medium containing 0.4/mg/ml G418 and single cell clones were isolated by limiting dilution, as well as pools of transfectants. To prepare additional cultures, drug-resistant clones and pools of clones were prepared by transfecting cells with pMAMNeo DNA alone and pMAMNeo containing Id2 cDNAs in the antisense orientation. 32D.3 cells were grown in suspension and maintained at equivalent exponential growth phases by seeding at 1×10^5 cells per ml culture medium. All subsequent analyses were performed using cells harvested at 0.5-1×10^6 cells per ml.\nViability and apoptosis assays. To investigate the effects of Id gene expression upon viability, cells growing exponentially in the presence of IL-3 (20 U/ml) were treated with dexamethasone for 16 hours. The cells were collected by centrifugation at 200×g for 10 min, washed twice in PBS, and resuspended in RPMI medium with 10% fetal bovine serum without IL-3. The number of viable cells was determined at various times after IL-3 withdrawal by trypan blue dye exclusion. […]"}, "Bax": {"system": "Bax", "experiment": "Immunoblot of apoptosis regulators in 32D.3 transfectants", "format": "cell-based, mouse", "protocol": "Expression of Id genes and immunoblot analysis. Id gene expression was induced by addition of 1 μM dexamethasone (Sigma) for 16 hours. Cells were then collected at the indicated times by centrifugation, washed in PBS, and whole cell lysates were prepared by resuspending the pellets in RIPA buffer (150 mM NaCl, 1 mM EDTA, 1% Nonidet P-40, 1% sodium deoxycholate, 20 mM Tris-HCl pH 7.2) containing protease inhibitors (1 μM phenylmethyl-sulfonylfluoride, 0.01 μM benzamidine HCl, 1 μg/ml o-phenanthroline, and 0.5 μg/ml each of antipain, leupeptin, pepstatin A, and aprotinin). The lysates were then clarified by centrifugation and examined by 12.5% SDS-PAGE. Western blot analysis was carried out to detect expression of Id proteins using the sc-489 rabbit polyclonal antibody against Id2 (Santa Cruz Biotechnology, Santa Cruz, Calif.) and rabbit polyclonal antibodies generated against bacterially expressed Id1 or Id3 (C. Hernandez, unpublished). The expression of Bax proteins was monitored using a rabbit anti-Bax polyclonal sc-930 (Santa Cruz Biotechnology, Santa Cruz, Calif.). Briefly, blots were washed with blocking buffer [4% milk powder and 0.2% Tween-20 in phosphate-buffered saline (PBS)], incubated with anti-Id2 or Bax antibodies (used at a 1:1000 dilution in blocking buffer), washed, and incubated with peroxidase-conjugated […]. […]"}, "32D.3 myeloid cells [2]": {"system": "32D.3 myeloid cells", "experiment": "FACS analysis of subdiploid population in 32D.3 transfectants", "format": "cell-based, mouse", "settings": "following IL-3 removal", "protocol": "Id2 enhances apoptosis in 32D.3 myeloid cells following IL-3 withdrawal. Since Id2 levels in 32D.3 cells increased in association with IL-3 withdrawal, we examined the effect of increasing Id2 expression on the apoptotic response of these cells. 32D.3 myeloid progenitor cells were transfected with the dexamethasone (dex)-inducible pMAMNeo expression vector containing a full-length Id2 cDNA. The expression of Id2 in clones and pools of transfectants was determined in immunoblots, and we observed a 3-4 fold increase in Id2 protein levels upon treatment of the cells with dex for 16 hours as compared to cells transfected with vector DNA or with a pMAMNeo recombinant plasmid with Id2 in the antisense orientation."}, "U20S osteosarcoma cells": {"system": "U20S osteosarcoma cells", "experiment": "DNA content by flow cytometry in tet-regulated U20S transfectants", "format": "cell-based", "settings": "clone 9, four days after removal of tetracycline (1000 ng/ml), in serum", "protocol": "To prepare a recombinant expression construct encoding Id2 which could be regulated by the addition of tetracycline to the culture media, the Kpn1/HindIII filled-in fragment of Id2 cDNA was inserted into the pUHD 10-3 vector (26) at EcoRI blunt-ended sites to prepare a tTA-responsive Id2 expression vector. DNA from pUHD-10-3Id2 was used in addition to DNA from pTet-TAk (GIBCO), encoding the tetracycline-regulatable tTA protein. Stable transfectants were prepared in the U20S osteosarcoma cell line by performing a 3 vector transfection using LipofectAmine (GIBCO) at a DNA ratio of 5:5:1 between pTet-Id2:ptet-TAk:pcDNA-3 and selected in the presence of DME/10%FBS/G418 (0.6 mg/ml)/tetracycline (5 μg/ml) media was changed after 2 days. […] To show expression of Id2, cells were trypsinized and plated with varying concentrations of tetracycline (0-1000 ng/ml).\nTo determine the extent of apoptosis in U20S cells transfected with pTet-Id2 DNA, cells were plated at a density of 5×10^5 cells per p100 plate and allowed to adhere for 24 hours in the presence of 1000 ng/ml tetracycline (tet). Then the media was changed to either 0 or 1000 ng/ml tet after 2 washes with PBS. The cells were maintained in the culture for 4 days before harvesting by trypsinization (floating cells were also harvested). […] DNA content was determined by flow cytometry on a FACSort (53)."}, "32D.3 myeloid cells [3]": {"system": "32D.3 myeloid cells", "experiment": "Apoptosis (TUNEL) assay in 32D.3 transfectants", "format": "cell-based, mouse", "settings": "following IL-3 withdrawal, dex-induced expression", "from_the_text": "cDNA constructs and establishment of cell lines. The mouse 32D.3 myeloid cell line was maintained in RPMI 1640 medium (GIBCO) supplemented with 10% fetal calf serum and 20U of IL-3 per ml as previously described (3, 12). The human IdI, Id2 and Id3 cDNAs (5, 6, 11) were introduced into the pMAM-Neo expression plasmid (Clontech, Palo Alto, Calif.) at the Xhol site. Mutations in Id2 and Id3 were generated by the polymerase chain reaction. To prepare an N-terminus deletion mutant, a 0.3 kb SalI-XhoI fragment lacking the region encoding amino acids 1-34 was inserted into the pMAM vector. A C-terminally truncated Id2 was prepared by removing a SmaI fragment containing cDNA corresponding to amino acids 93-135. Id2ΔHLH was prepared as previously described (34) and subcloned into the pMAM vector at the XhoI site. The primary structure of all mutants was confirmed by DNA sequencing. 32D.3 cells were electroporated as previously described with 10 μg of linearized plasmid DNA (12). […]\nExpression of Id genes and immunoblot analysis. […] The expression of Bax proteins was monitored using a rabbit anti-Bax polyclonal sc-930 (Santa Cruz Biotechnology, Santa Cruz, Calif.). […]\nViability and apoptosis assays. […] The number of viable cells was determined at various times after IL-3 withdrawal by trypan blue dye exclusion. […]"}}, "note": "“Also recorded” adds a separate entry of the source."}
{"molecule": "B1", "values": [{"measurement": "rates of cell death", "setting": "32D.3 myeloid cells [1]", "value": "dramatically accelerated rates of death"}, {"measurement": "effects on viability", "setting": "32D.3 myeloid cells [1]; presence of IL-3, 16 hours of treatment with dex", "value": "only minor effects on viability"}, {"measurement": "levels of other known regulators including Bad, Bcl-2, Bcl-XL and Bcl-XS", "setting": "Bax; cultured in IL-3", "value": "no changes"}, {"measurement": "Bax levels", "setting": "Bax; cultured in IL-3, relative to vector transfected cells", "value": "elevated"}, {"measurement": "subdiploid population, indicative of apoptotic DNA fragmentation", "setting": "32D.3 myeloid cells [2]", "value": "significantly augmented"}, {"measurement": "apoptotic cells with subdiploid DNA content", "setting": "U20S osteosarcoma cells", "value": "a large proportion of apoptotic cells with subdiploid DNA content"}, {"measurement": "extent of apoptosis by the TUNEL assay", "setting": "32D.3 myeloid cells [3]", "value": "significantly elevated apoptosis; also recorded: concentration-dependent; also recorded: expected enhancement in apoptosis"}]}
{"molecule": "B2", "values": [{"measurement": "rates of cell death", "setting": "32D.3 myeloid cells [1]", "value": "without effect"}]}
